From PMC7673487 (International Journal of Nanomedicine, 2020)

Key:
[1] = molecular target: T1, recombinant rat NRP-1 protein (rat, UniProt Q9QWJ9 22-855); test: SPR
T1 sequence (looked up): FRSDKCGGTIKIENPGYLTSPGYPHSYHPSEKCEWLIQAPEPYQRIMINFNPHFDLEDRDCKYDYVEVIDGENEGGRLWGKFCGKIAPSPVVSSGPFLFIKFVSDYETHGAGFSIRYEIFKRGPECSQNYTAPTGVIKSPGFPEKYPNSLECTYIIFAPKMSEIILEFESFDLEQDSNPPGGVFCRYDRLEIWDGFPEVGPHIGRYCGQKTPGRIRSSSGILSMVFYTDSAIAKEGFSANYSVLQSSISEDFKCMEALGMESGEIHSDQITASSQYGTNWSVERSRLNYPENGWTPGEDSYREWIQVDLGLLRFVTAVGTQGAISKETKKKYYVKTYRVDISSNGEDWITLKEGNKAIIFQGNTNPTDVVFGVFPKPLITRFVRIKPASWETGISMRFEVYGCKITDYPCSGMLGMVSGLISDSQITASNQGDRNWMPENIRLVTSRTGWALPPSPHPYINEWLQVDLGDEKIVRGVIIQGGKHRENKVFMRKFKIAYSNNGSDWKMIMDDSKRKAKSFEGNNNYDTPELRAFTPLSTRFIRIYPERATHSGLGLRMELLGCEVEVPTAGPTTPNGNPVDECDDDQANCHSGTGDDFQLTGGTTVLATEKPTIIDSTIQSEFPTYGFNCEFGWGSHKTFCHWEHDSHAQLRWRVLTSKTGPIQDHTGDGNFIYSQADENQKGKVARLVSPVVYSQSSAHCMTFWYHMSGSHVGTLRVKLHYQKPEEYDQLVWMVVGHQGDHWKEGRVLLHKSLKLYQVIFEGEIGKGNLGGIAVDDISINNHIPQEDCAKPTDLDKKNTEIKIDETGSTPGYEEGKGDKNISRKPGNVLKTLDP

[2] = molecular target: T2, recombinant human NRP-1 protein (human, UniProt O14786 22-856); test: SPR
T2 sequence (looked up): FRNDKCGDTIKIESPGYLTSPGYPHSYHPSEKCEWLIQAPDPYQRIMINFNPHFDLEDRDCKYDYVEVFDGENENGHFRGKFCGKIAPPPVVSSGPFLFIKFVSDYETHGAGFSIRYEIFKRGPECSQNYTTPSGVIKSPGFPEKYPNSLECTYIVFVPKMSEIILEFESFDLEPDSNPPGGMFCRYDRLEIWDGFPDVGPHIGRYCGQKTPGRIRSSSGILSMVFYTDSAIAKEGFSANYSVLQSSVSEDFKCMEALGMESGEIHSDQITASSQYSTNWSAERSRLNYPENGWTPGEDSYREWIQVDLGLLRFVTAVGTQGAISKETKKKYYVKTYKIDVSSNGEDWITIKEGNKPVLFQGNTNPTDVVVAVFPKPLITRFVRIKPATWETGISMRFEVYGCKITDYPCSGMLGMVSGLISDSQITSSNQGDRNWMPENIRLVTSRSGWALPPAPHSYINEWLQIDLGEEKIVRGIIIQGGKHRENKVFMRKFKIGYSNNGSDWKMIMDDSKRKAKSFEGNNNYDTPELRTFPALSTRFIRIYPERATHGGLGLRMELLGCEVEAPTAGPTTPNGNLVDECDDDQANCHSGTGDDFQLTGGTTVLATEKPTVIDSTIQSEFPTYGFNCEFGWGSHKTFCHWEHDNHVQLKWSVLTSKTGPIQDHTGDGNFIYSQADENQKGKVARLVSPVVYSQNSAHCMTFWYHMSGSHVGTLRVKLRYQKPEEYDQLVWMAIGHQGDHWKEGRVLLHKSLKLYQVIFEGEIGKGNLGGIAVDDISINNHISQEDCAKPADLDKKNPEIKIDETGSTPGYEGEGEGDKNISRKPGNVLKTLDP

B1: KDKPPR peptide (peptide)
peptide: KDKPPR
With B1 as the binder, how does the Kd [1] read?
Its Kd is 8.7 µM.

What about the Kd [2] of the same binder?
Its Kd is 0.5 µM.
